Test results: US20120088715A1 (UNIVERSITE PARIS SUD XI, published 2012)

Target: T1, factor Xa (UniProt P00742 41-179; P00742 235-488, limits assumed)
T1 construct: Bought enzyme; The active enzyme has a light and a heavy chain cut from that precursor; also called FXa
Assay: discontinuous chromogenic substrate assay of FXa inhibition with pentasaccharide, against plasma AT
Method: The pentasaccharide is added in excess in the reaction media so that every tested antithrombin is bound to the pentasaccharide. In the absence of pentasaccharide, polybrene (100 μg/ml final) is added in order to neutralize any sulfated glycosaminoglycan that may be present in the reaction media. […] The analysis of the data is performed using the GraphPad Prism version 3 software. Absorbance recording is continuous or discontinuous according to the expected inhibition rate constant (kon).
When the expected kon is lower than 10⁴ M⁻¹.s⁻¹ the discontinuous method is used. […] At the end of this incubation period, 190 μl of kinetic buffer containing 200 μM substrate is added and absorbance at 405 nm is recorded.

T1 sequence (P00742 41-179 limits assumed, form in doubt, chain 1 of 2): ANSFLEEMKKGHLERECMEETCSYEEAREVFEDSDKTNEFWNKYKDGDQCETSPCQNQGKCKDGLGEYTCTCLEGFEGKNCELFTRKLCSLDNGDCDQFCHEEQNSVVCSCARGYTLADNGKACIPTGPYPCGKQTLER
T1 sequence (P00742 235-488 limits assumed, form in doubt, chain 2 of 2): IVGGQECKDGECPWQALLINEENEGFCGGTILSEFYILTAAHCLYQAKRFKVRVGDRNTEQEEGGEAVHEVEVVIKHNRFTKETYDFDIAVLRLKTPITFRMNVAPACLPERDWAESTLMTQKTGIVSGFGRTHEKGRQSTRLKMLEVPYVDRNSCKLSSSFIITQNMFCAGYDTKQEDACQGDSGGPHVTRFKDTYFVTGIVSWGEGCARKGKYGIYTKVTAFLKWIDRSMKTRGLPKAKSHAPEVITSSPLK

B1: AT-N135Q-Pro394 (other)
chain: HGSPVDICTAKPRDIPMNPMCIYRSPEKKATEDEGSEQKIPEATNRRVWELSKANSRFATTFYQHLADSKNDNDNIFLSPLSISTAFAMTKLGACNDTLQQLMEVFKFDTISEKTSDQIHFFFAKLNCRLYRKAQKSSKLVSANRLFGDKSLTFNETYQDISELVYGAKLQPLDFKENAEQSRAAINKWVSNKTEGRITDVIPSEAINELTVLVLVNTIYFKGLWKSKFSPENTRKELFYKADGESCSASMMYQEGKFRYRRVAEGTQVLELPFKGDDITMVLILPKPEKSLAKVEKELTPEVLQEWLDELEEMMLVVHMPRFRIEDGFSLKEQLQDMGLVDLFSPEKSKLPGIVAEGRDDLYVSDAFHKAFLEVNEEGSEAAASTAVVIAGRPSLNPNRVTFKANRPFLVFIREVPLNTIIFMGRVANPCVK
In the case of B1, the “fold lower kon than plasma AT” value is reported as at least 7600 fold.
